One block for each substance: values may come before it.
What was measured:
ZFN 12257 (synthetic) = assay: cell_activity; conditions: K562, pair with 12329 (pairing inferred from adjacent sites), Surveyor assay
ZFN 12329 (synthetic) = assay: cell_activity; conditions: K562, pair with 12257 (pairing inferred from adjacent sites), Surveyor assay
ZFN 12273 (synthetic) = assay: cell_activity; conditions: K562, pair with 12270, Surveyor assay; 34.6% in enriched SupT1 pool, >40% in primary CD4 T cells
HLA Class I [1] = assay: flow cytometry on parental SupT1 cells, PE anti-mouse IgG secondary
HLA Class I [2] = assay: flow cytometry on SupT1 clone B4, PE anti-mouse IgG secondary
HLA Class I [3] = assay: flow cytometry on SupT1 clone B13, PE anti-mouse IgG secondary
HLA Class I [4] = assay: flow cytometry on SupT1 clone A66, PE anti-mouse IgG secondary
[5] = target: CXCR4 isoform b, WT (352 a.a.) (human) (UniProt P61073); assay: flow cytometry on parental SupT1 cells, PE anti-mouse IgG secondary
Sequence of UniProt P61073 (P61073 whole entry, canonical isoform): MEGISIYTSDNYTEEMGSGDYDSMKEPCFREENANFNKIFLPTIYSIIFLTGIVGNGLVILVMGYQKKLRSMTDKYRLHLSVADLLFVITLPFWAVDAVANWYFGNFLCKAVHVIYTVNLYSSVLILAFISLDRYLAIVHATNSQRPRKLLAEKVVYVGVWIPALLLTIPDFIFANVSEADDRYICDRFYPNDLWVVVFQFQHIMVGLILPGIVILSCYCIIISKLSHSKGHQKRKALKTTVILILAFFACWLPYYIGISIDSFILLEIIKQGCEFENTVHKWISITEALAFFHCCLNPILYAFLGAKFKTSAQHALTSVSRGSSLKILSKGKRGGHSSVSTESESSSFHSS

ZFN 12270 (synthetic) = assay: cell_activity; conditions: K562, pair with 12273, Surveyor assay; 34.6% in enriched SupT1 pool, >40% in primary CD4 T cells
ZFN 12281 (synthetic) = assay: cell_activity; conditions: K562, pair with 12290 (pairing inferred from adjacent sites), Surveyor assay
ZFN 12290 (synthetic) = assay: cell_activity; conditions: K562, pair with 12281 (pairing inferred from adjacent sites), Surveyor assay

Substance: AGTCAGAGGCCAAGGAAGCTGTTGGCTG (double strand) [CXCR4 12257 target]
activity (ZFN 12257 (synthetic)): > 20 % NHEJ

Substance: TTGGTGGCGTGGACGATGGCCAGGTAGC (double strand) [CXCR4 12329 target]
activity (ZFN 12329 (synthetic)): > 20 % NHEJ

Substance: GGGTAGAAGCGGTCACAGATATATCTGT (double strand) [CXCR4 12273 target]
activity (ZFN 12273 (synthetic)): > 20 % NHEJ

Mean Channel Fluorescence (HLA Class I [1]): 83
Mean Channel Fluorescence (HLA Class I [2]): 152
Mean Channel Fluorescence (HLA Class I [3]): 170
Mean Channel Fluorescence (HLA Class I [4]): 189
Substance: Anti-HLA Cl-I W6/32 (antibody)

Mean Channel Fluorescence [5]: 35
Substance: anti-CXCR4 mAb (12G5) (antibody)

Substance: ATGACTTGTGGGTGGTTGTGTTCCAGTT (double strand) [CXCR4 12270 target]
activity (ZFN 12270 (synthetic)): > 20 % NHEJ

Substance: CAGTTGATGCCGTGGCAAACTGGTACTT (double strand) [CXCR4 12281 target]
activity (ZFN 12281 (synthetic)): > 20 % NHEJ

Mean Channel Fluorescence [5]: 136
Substance: anti-CXCR4 NT (4G10) (antibody)

Substance: CCAGAAGGGAAGCGTGATGACAAAGAGG (double strand) [CXCR4 12290 target]
activity (ZFN 12290 (synthetic)): > 20 % NHEJ

Reference: patent publication US20100291048A1
